Patent US8759482B2, “Kinetically efficient substrate for lipoic acid ligase” (Massachusetts Institute of Technology, priority 2009, dated 2014)

Substrate: CC[C@H](C)[C@H](NC(=O)[C@H](CCC(=O)O)NC(=O)[C@H](Cc1ccccc1)NC(=O)CN)C(=O)N[C@@H](CC(=O)O)C(=O)N[C@@H](CCCCN)C(=O)N[C@H](C(=O)N[C@@H](Cc1c[nH]c2ccccc12)C(=O)N[C@@H](Cc1ccc(O)cc1)C(=O)N[C@@H](CC(=O)O)C(=O)N[C@@H](CC(C)C)C(=O)N[C@@H](CC(=O)O)C(=O)N[C@@H](C)C(=O)O)C(C)C
Assay: Lp1A-catalyzed lipoylation kinetics (kcat, Km) by HPLC
Format: biochemical, Escherichia coli
Conditions: other: synthetic LAP2 peptide, 50 nM Lp1A, 750 μM lipoic acid, 30° C.
Description: Various concentrations of synthetic LAP2 peptide (not a fusion protein) were lipoylated with 50 nM Lp1A, 750 μM lipoic acid, and 3 mM ATP, and initial reaction rates were measured by HPLC. […] Measurements were performed in triplicate.
Using HPLC to quantify product formation, the kcat and Km values were measured for Lp1A-catalyzed lipoylation of a synthetic LAP2 peptide (without an attached fusion protein).
To measure the kcat and Km values for lipoylation, 50 nM Lp1A was combined with 750 μM lipoic acid, 2 mM ATP, and 5 mM magnesium acetate in DPBS. Varying concentrations of LAP2 (5.5, 11, 22, 44, 88, 176, or 352 μM) were used; 60 μL aliquots were removed from the 30° C. reactions at 5 min intervals, up to 20 min, and quenched with 180 mM EDTA (final concentration). HPLC was used to determine the amount of product in each aliquot, and kinetic parameters were extracted using the Michaelis-Menten equation as described previously.^13,28

B1: Escherichia coli lipoic acid ligase (Lp1A) (Escherichia coli K-12) (protein)
chain: MSTLRLLISDSYDPWFNLAVEECIFRQMPATQRVLFLWRNADTVVIGRAQNPWKECNTRRMEEDNVRLARRSSGGGAVFHDLGNTCFTFMAGKPEYDKTISTSIVLNALNALGVSAEASGRNDLVVKTVEGDRKVSGSAYRETKDRGFHHGTLLLNADLSRLANYLNPDKKKLAAKGITSVRSRVTNLTELLPGITHEQVCEAITEAFFAHYGERVEAEIISPNKTPDLPNFAETFARQSSWEWNFGQAPAFSHLLDERFTWGGVELHFDVEKGHITRAQVFTDSLNPAPLEALAGRLQGCLYRADMLQQECEALLVDFPEQEKELRELSAWMAGAVR
B1 was tested. Which Km did it give?
The Km was 13.32 ± 1.78 µM.

And the kcat?
The kcat was 0.22 s⁻¹.

And the kcat/Km?
Its kcat/Km is 16500 M⁻¹ s⁻¹.
